Data on 21 molecules can be found in PMC7442819, “Taf14 recognizes a common motif in transcriptional machineries and facilitates their clustering by phase separation” (Nature Communications, 2020).

T1: Taf14ET (Taf14_(174–244)) (Saccharomyces cerevisiae, UniProt P35189 174-244)
T1 chain: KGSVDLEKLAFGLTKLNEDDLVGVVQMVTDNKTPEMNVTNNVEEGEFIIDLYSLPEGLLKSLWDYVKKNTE

T2: Taf14ET (Taf14_(174–244)) (Saccharomyces cerevisiae), P35189
T2 chain: T1 chain

T3: Sth1_(1183–1359) (Saccharomyces cerevisiae, UniProt P32597 1183-1359)
T3 construct: source: E. coli Rosetta, purified
T3 sequence (looked up): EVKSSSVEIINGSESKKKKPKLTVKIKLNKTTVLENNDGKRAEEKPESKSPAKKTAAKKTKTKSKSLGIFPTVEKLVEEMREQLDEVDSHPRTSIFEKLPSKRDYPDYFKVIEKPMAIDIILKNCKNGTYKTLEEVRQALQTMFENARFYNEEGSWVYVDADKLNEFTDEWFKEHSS

T4: Taf14ET F220A (Saccharomyces cerevisiae)
T4 chain: T1 chain with F47A

B1: Sas3_(111–129) (peptide, UniProt P34218 111-129, looked up)
peptide: SEELKVRIKYDSIKFFNFE
notes: Sas3, Saccharomyces cerevisiae, residues 111-129; source: synthetic peptide (Scilight-Peptide and GenScript) for NMR
B2: Taf14ET (Taf14_(174–244)) (domain or fragment, Saccharomyces cerevisiae, UniProt P35189 174-244, looked up)
chain: T1 chain
notes: Taf14, Saccharomyces cerevisiae, ET domain, residues 174-244; 15N- or 15N/13C-labelled for NMR; also called Taf14 ET domain; 15N-Taf14ET; source: E. coli Rosetta, purified (Ni-NTA, on-beads digestion, SEC)
B3: GST-Taf14_(174–244) (domain or fragment, Saccharomyces cerevisiae, UniProt P35189 174-244, looked up)
chain: T1 chain
notes: Taf14, Saccharomyces cerevisiae, ET domain, residues 174-244; also called GST-Taf14ET; GST-tagged Taf14ET; source: E. coli Rosetta, purified (Ni-NTA, eluted as GST-fused protein, SEC); not shown: 6*His-GST, N-terminal, kept
B4: Tfg1 motif from 613 to 628 (peptide, UniProt P41895 613-628, looked up)
peptide: IKNCVIILKGDKKILK
notes: Tfg1, Saccharomyces cerevisiae, first motif, residues 613-628
B5: Ino80_(368–390) (peptide, UniProt P53115 368-390, looked up)
peptide: DSKLNIKITLKQYHVKRLKKLIN
notes: Ino80, Saccharomyces cerevisiae, residues 368-390; also called Ino80EBM; source: synthetic peptide (Scilight-Peptide and GenScript) for NMR
B6: Taf2_(1393–1406) (peptide, UniProt P23255 1393-1406, looked up)
peptide: RSFMVKIRTKNDAK
notes: Taf2, Saccharomyces cerevisiae, residues 1393-1406; source: synthetic peptide (Scilight-Peptide and GenScript) for NMR
B7: Snf5_(771–800) (peptide, UniProt P18480 771-800, looked up)
peptide: SPPCYIIDHIPGHSLLLSIKLPGKVNTKEE
notes: also called Snf5EBM; source: synthetic peptide (Scilight-Peptide and GenScript) for NMR
B8: Sth1EBM (Sth1_(1183–1240)) (domain or fragment, Saccharomyces cerevisiae, UniProt P32597 1183-1240, looked up)
chain: EVKSSSVEIINGSESKKKKPKLTVKIKLNKTTVLENNDGKRAEEKPESKSPAKKTAAK
notes: source: E. coli Rosetta, purified (Ni-NTA, on-beads digestion, SEC)
B9: Sth1EBM I1208A (domain or fragment, Saccharomyces cerevisiae, UniProt P32597 1183-1240, looked up)
chain: B8 chain with I26A
notes: also called Sth1^I1208A; source: E. coli Rosetta, purified (same protocol as the wild type)
B10: Sth1EBM V1206A (domain or fragment, Saccharomyces cerevisiae, UniProt P32597 1183-1240, looked up)
chain: B8 chain with V24A
notes: source: E. coli Rosetta, purified (same protocol as the wild type)
B11: Sth1EBM K1207E (domain or fragment, Saccharomyces cerevisiae, UniProt P32597 1183-1240, looked up)
chain: B8 chain with K25E
notes: as for B10
B12: Sth1EBM L1204A (domain or fragment, Saccharomyces cerevisiae, UniProt P32597 1183-1240, looked up)
chain: B8 chain with L22A
notes: as for B10
B13: Sth1EBM K1209E (domain or fragment, Saccharomyces cerevisiae, UniProt P32597 1183-1240, looked up)
chain: B8 chain with K27E
notes: as for B10
B14: Sth1EBM L1210A (domain or fragment, Saccharomyces cerevisiae, UniProt P32597 1183-1240, looked up)
chain: B8 chain with L28A
notes: as for B10
B15: Tfg1 motif from 685 to 700 (peptide, UniProt P41895 685-700, looked up)
peptide: EAIGDGKVNIKEFGKF
notes: Tfg1, Saccharomyces cerevisiae, second motif, residues 685-700
B16: Tfg1 fragment containing both motifs (domain or fragment)
chain: DTLSKSKRSSPKKQQKKATNAHVHKEPTLRVKSIKNCVIILKGDKKILKSFPEGEWNPQTTKAVDSSNNASNTVPSPIKQEEGLNSTVAEREETPAPTITEKDIIEAIGDGKVNIKEFGKFIRRKYPGAENKKLMFAIVKKLCRKVGNDHMELKKE

Substitutions are numbered along the chain they refer to. In names and notes the source's numbering stands. Several values for one entry are separate records, joined by “and”; a condition that tells them apart may be missing. Identical values can stand only once.

The target of data set [1] is T1, Taf14ET (Taf14_(174–244)). The data set can be described thus: ITC.
Data set [2] has as its target B2. The data set can be described thus: ITC; peptide at 1.0 mM in the syringe titrated into Taf14ET at 0.1 mM in the cell; 20 mM phosphate pH 7.0, 100 mM NaCl, 2 mM DTT; 25 °C; one binding site model. The settings on record: both partners purified. (In general: In ITC the heat of successive injections is recorded.)
The target of data set [3] is B3. Briefly: pull-down; GST-tagged ET domain (25 μg) and binding partner (50 μg) with glutathione–Sepharose 4B beads; 25 mM Tris-HCl pH 8.0, 150 mM NaCl, 2 mM DTT; 4 °C, 3 h; SDS-PAGE. As to conditions: both partners purified.
Data set [4] has as its target T2, Taf14ET (Taf14_(174–244)) …. Briefly: ITC. As to conditions: modification not given.
Data set [5] deals with the molecule itself. Briefly: 15N-1H HSQC at several concentrations; apo 15N-Taf14ET at 0.05, 0.1, 0.2 and 0.5 mM.
Data set [6] has as its target Sth1EBM K1209E (Saccharomyces cerevisiae, UniProt P32597 1183-1240, K1209E). The data set can be described thus: ITC.
The target in data set [7] is Sth1EBM K1207E (Saccharomyces cerevisiae, UniProt P32597 1183-1240, K1207E). Briefly: ITC.
The target of data set [8] is Sth1EBM V1206A (Saccharomyces cerevisiae, UniProt P32597 1183-1240, V1206A). Briefly: ITC.
Data set [9] deals with Sth1EBM L1204A (Saccharomyces cerevisiae, UniProt P32597 1183-1240, L1204A). The data set can be described thus: ITC.
The target in data set [10] is Sth1EBM L1210A (Saccharomyces cerevisiae, UniProt P32597 1183-1240, L1210A). Briefly: ITC.
Data set [11] addresses Sth1EBM I1208A (Saccharomyces cerevisiae, UniProt P32597 1183-1240, I1208A). Briefly: ITC.
In data set [12] the target is T3, Sth1_(1183–1359). The data set can be described thus: pull-down; GST-tagged ET domain (25 μg) and binding partner (50 μg) with glutathione–Sepharose 4B beads; 25 mM Tris-HCl pH 8.0, 150 mM NaCl, 2 mM DTT; 4 °C, 3 h; SDS-PAGE. The settings on record: both partners purified.
The target in data set [13] is T1, Taf14ET (Taf14_(174–244)). The data set can be described thus: ITC.
Data set [14] deals with Taf14ET F220R (Saccharomyces cerevisiae, UniProt P35189 174-244, F220R). The data set can be described thus: ITC.
Data set [15] has as its target T1, Taf14ET (Taf14_(174–244)). The data set can be described thus: ITC.
Data set [16] deals with Taf14ET I222R (Saccharomyces cerevisiae, UniProt P35189 174-244, I222R). Briefly: ITC.
The target of data set [17] is T4, Taf14ET F220A. The data set can be described thus: ITC.

For orientation: Kd means a measure of binding affinity in units of concentration. In data set [1], B1 gave a Kd of 31.3 µM. Further, the binding result in [2] was “binds”.

Take KKKPKLTVKIKLNKTTVLENNDGKRAE (domain or fragment, Saccharomyces cerevisiae, UniProt P32597 1199-1225, looked up, source: E. coli Rosetta, purified) [Sth1_(1199–1225)]: the binding result in data set [3] is “binds”.

SPPCYIIDHIPGHSLLLSAKLPGKVNTKEE [Snf5EBM I789A] gave a Kd in data set [4] of 189 µM.

As for B2, the binding result in [5] is reported as “binds”. Moreover, the Kd in data set [6] was 7.69 µM and 3.94 µM; in [7], 3.94 µM and 7.69 µM; in [8], 2.04 µM; in data set [9], 2.06 µM; in [10], 1.14 µM; in data set [11], 13.4 µM.

Take B3: the binding result in [12] is given as “binds”.

In data set [2], B4 registered a Kd of around 17 µM.

In turn, B5 came in with a Kd in [1] of 0.25 µM. Besides, the binding result in data set [2] is given as “binds”.

In [1], B6 showed a dissociation constant Kd of 0.8 µM. Further, the binding result in data set [2] is given as “binds”.

For B7, the Kd in data set [1] is 2.48 µM. The binding result in data set [2] is listed as “binds”.

With DSKLNAKITLKQYHVKRLKKLIN [Ino80EBM I373A], in data set [4], the Kd came out at 3.86 µM.

For B8, the Kd was 0.372 µM and 0.194 µM in data set [13]; around 0.055 µM in [2]; 3.5 µM in [14]; 0.05 µM in data set [15]; 54.6 µM in [16]; 0.68 µM in data set [17].

Turning to B9, the “fold increase of KD against wild-type Sth1EBM” value (from here on “fold increase of KD”) in [2] was 270 fold.

In the case of B10, in data set [2], the binding result is recorded as “binds”.

As for B11, the “fold increase of KD” value in data set [2] stood at 154 fold.

As for B12, the binding result in data set [2] is recorded as “binds”.

As to B13, the “fold increase of KD” value in data set [2] was found to be 79 fold.

Consider B14, for which the binding result in data set [2] is reported as “binds”.

In data set [2], B15 yielded a Kd of around 9 µM.

The molecule SPPCYIIDHIPGHSLLASIKLPGKVNTKEE [Snf5EBM L787A] displayed a Kd in data set [4] of 41.5 µM.

Molecule B16 showed a Kd in data set [2] of around 0.33 µM.

With DSKLNIKITAKQYHVKRLKKLIN [Ino80EBM L377A], in data set [4], the dissociation constant (Kd) was 3.87 µM.
